From patent US20170015742A1 (published 2017) come the findings set out here.

Assay [1] has as its target T1, PDGF-BB (human, UniProt P01127 82-190, limits assumed).
T1 construct: also called human PDGF-BB; hPDGF-BB
Description: Biacore SPR; DVD-Ig captured on anti-human Fc, antigen injected. The method in brief:
(§1)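 Antibodies or DVD-Ig molecules (1 μg/ml) were captured on an anti-human Fc CM5 surface, with antigen injected in solution and responses referenced to the capture-only surface. Rate constants came from a global 1:1 Langmuir fit, and KD = koff/kon.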

Assay [2] addresses T2, VEGF-A (human, UniProt P15692 207-395).
T2 construct: also called hVEGF165
Described as above. The essentials:
as §1

For assay [3], the target named is VEGF-A (UniProt P15692-4 27-191, limits assumed). Put plainly: SPR (Biacore), DVD-Ig captured by anti-human Fc, antigen in flow. The procedure:
(§2) For example, approximately 9000 RU of goat anti-human Fc specific polyclonal antibody (Thermo Fisher Scientific Inc., Rockford, Ill.) diluted in 10 mM sodium acetate (pH 4.5) is directly immobilized across a CM5 research grade biosensor chip using a standard amine coupling kit according to manufacturer's instructions and procedures at 25 μg/ml. Unreacted moieties on the biosensor surface were blocked with ethanolamine. For kinetic analysis, rate equations derived from the 1:1 Langmuir binding model were fitted simultaneously to multiple antigen injections (using global fit analysis) with the use of Scrubber 2 (BioLogic Software), Biacore Biaevaluation 4.0.1 software or Biacore T100 Evaluation software. Purified antibodies or DVD-Ig molecules were diluted in running buffer for capture across goat anti-human Fc reaction surfaces. Antibodies or DVD-Ig molecules to be captured as a ligand (1 μg/ml) were injected over reaction matrices at a flow rate of 10 μl/minute. During the assay, all measurements were referenced against the capture surface alone (i.e., with no captured antibody or DVD-Ig molecule). […] The equilibrium dissociation constant KD (M) of the reaction between antibodies and the target antigen was then calculated from the kinetic rate constants by the following formula: KD=Koff/Kₒₙ. Binding was recorded as a function of time and kinetic rate constants were calculated.

The target of assay [4] is PDGF-BB (UniProt P01127 82-190). Described as above. The procedure:
as §2

Broadly, the Kd is the equilibrium constant for the complex coming apart. A high value points to lower affinity. As a reminder, the kon is the second-order rate constant of association.

T1 sequence (P01127 82-190 limits assumed): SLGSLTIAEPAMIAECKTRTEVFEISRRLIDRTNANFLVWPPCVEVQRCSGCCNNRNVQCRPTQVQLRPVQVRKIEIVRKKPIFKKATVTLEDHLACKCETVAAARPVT
Chain of PDGF-BB (UniProt P01127 82-190) (P01127 82-190): as the sequence (P01127 82-190 limits assumed) above
T2 sequence (P15692 other isoform, or with tags, fused parts or gaps limits assumed): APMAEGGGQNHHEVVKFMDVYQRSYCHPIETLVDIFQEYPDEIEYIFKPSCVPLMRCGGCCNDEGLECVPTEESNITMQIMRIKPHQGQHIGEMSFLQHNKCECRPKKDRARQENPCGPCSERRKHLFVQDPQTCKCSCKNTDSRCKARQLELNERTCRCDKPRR
Chain of VEGF-A (UniProt P15692-4 27-191, limits assumed) (P15692 other isoform, or with tags, fused parts or gaps limits assumed): as above

B1: 4G8.5_GS_3E2.1 (PR-1610560) (bispecific antibody, human IgG1, kappa, L234A L235A)
heavy: EIQLVQSGSELKKPGASVKVSCKASGYTFTNYGMYWVRQAPGQGLEYMGWINTETGKPTYADDFKGRFVFSLDTSVSTAYLQISSLKAEDTAVYFCARTNYYYRSYIFYFDYWGQGTMVTVSSGGGGSGGGGSEVQLVQSGAEVKKPGSSVKVSCKASGYTFTESYMYWVKQAPGQGLELIGRIDPEDGSTDYVEKFKNKATLTADKSTSTAYMELSSLRSEDTAVYFCARFGARSYFYPMDAWGQGTTVTVSSASTKGPSVFPLAPSSKSTSGGTAALGCLVKDYFPEPVTVSWNSGALTSGVHTFPAVLQSSGLYSLSSVVTVPSSSLGTQTYICNVNHKPSNTKVDKKVEPKSCDKTHTCPPCPAPEAAGGPSVFLFPPKPKDTLMISRTPEVTCVVVDVSHEDPEVKFNWYVDGVEVHNAKTKPREEQYNSTYRVVSVLTVLHQDWLNGKEYKCKVSNKALPAPIEKTISKAKGQPREPQVYTLPPSREEMTKNQVSLTCLVKGFYPSDIAVEWESNGQPENNYKTTPPVLDSDGSFFLYSKLTVDKSRWQQGNVFSCSVMHEALHNAYTQKSLSLSPGK
light: ATQLTQSPSLSASVGDRVTITCRASESVSTHMHWYQQKPGKQPKLLIYGASNLESGVPSRFSGSGSGTDFTLTISSLQPEDFATYFCQQSWNDPFTFGQGTKLEIKGGSGGGGSGGETVLTQSPATLSLSPGERATLSCRASESVSTLMHWYQQKPGQQPRLLIYGASNLESGVPARFSGSGSGTDFTLTISSLEPEDFAVYFCQQSWNDPWTFGGGTKVEIKRTVAAPSVFIFPPSDEQLKSGTASVVCLLNNFYPREAKVQWKVDNALQSGNSQESVTEQDSKDSTYSLSSTLTLSKADYEKHKVYACEVTHQGLSSPVTKSFNRGEC
notes: DVD-Ig: outer hBDB-4G8.5 (VEGF), inner hBFU-3E2.1 (PDGF), linkers GS-H10/GS-L10(dR); Human IgG1 L234A, L235A, H435A with kappa
With B1, the Kd with PDGF-BB [1] was found to be 0.013 nM; with VEGF-A [2] it was 8.7 pM. The figures for the kon in the assay with PDGF-BB [1] and with VEGF-A [2] were 4.1e+07 M⁻¹ s⁻¹ and 4.8e+06 M⁻¹ s⁻¹, respectively.

B2: 9E8.4-SL-4G8.3 (PR-1563998) (bispecific antibody, human IgG1, kappa, L234A L235A)
heavy: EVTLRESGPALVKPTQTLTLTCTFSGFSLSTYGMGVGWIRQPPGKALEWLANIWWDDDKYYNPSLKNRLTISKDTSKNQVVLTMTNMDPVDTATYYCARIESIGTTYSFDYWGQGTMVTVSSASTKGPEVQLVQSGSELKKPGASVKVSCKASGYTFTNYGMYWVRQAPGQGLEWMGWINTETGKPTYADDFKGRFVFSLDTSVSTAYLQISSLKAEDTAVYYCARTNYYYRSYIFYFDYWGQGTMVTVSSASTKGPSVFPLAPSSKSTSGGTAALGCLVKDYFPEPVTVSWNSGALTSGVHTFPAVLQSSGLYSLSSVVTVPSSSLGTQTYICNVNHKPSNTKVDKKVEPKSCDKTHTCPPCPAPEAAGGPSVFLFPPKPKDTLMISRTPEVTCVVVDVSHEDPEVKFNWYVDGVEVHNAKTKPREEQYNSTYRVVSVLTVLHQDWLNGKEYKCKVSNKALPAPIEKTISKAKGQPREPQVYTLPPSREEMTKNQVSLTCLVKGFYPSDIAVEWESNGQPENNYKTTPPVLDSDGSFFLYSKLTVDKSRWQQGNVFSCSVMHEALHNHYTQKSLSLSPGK
light: EFVLTQSPGTLSLSPGERATLSCERSSGDIGDSYVSWYQQKPGQAPRLVIYADDQRPSGIPDRFSGSGSGTDFTLTISRLEPEDFAVYYCQSYDINIDIVFGGGTKVEIKGTVAAPSVFIFPPDTVLTQSPATLSLSPGERATLSCRASESVSTHMHWYQQKPGQAPRLLIYGASNLESGVPARFSGSGSGTDFTLTISSLEPEDFAVYFCQQSWNDPFTFGQGTKLEIKRTVAAPSVFIFPPSDEQLKSGTASVVCLLNNFYPREAKVQWKVDNALQSGNSQESVTEQDSKDSTYSLSSTLTLSKADYEKHKVYACEVTHQGLSSPVTKSFNRGEC
notes: DVD-Ig; outer hBDI-9E8.4 (PDGF), linkers HG-short/LK-long, inner hBDB-4G8.3 (VEGF); human IgG1 L234A, L235A / kappa
In the assay with VEGF-A [3], B2 displayed a Kd of 0.12 nM and a kon of 700000 M⁻¹ s⁻¹. Besides, in the assay with PDGF-BB [4], binding was characterised by a dissociation constant (Kd) of 0.019 nM and the kon turned out to be 1e+07 M⁻¹ s⁻¹.

B3: 4G8.5_GS_CL-33675 (PR-1611291) (bispecific antibody, human IgG1, kappa, L234A L235A)
heavy: EIQLVQSGSELKKPGASVKVSCKASGYTFTNYGMYWVRQAPGQGLEYMGWINTETGKPTYADDFKGRFVFSLDTSVSTAYLQISSLKAEDTAVYFCARTNYYYRSYIFYFDYWGQGTMVTVSSGGGGSGGGGSEVTLRESGPALVKPTQTLTLTCTFSGFSLSTYGMGVGWIRQPPGKALEWLANIWWDDDKYYNPSLKNRLTISKDTSKNQVVLTMTNMDPVDTATYYCARIESSGPKYSFDYWGQGTMVTVSSASTKGPSVFPLAPSSKSTSGGTAALGCLVKDYFPEPVTVSWNSGALTSGVHTFPAVLQSSGLYSLSSVVTVPSSSLGTQTYICNVNHKPSNTKVDKKVEPKSCDKTHTCPPCPAPEAAGGPSVFLFPPKPKDTLMISRTPEVTCVVVDVSHEDPEVKFNWYVDGVEVHNAKTKPREEQYNSTYRVVSVLTVLHQDWLNGKEYKCKVSNKALPAPIEKTISKAKGQPREPQVYTLPPSREEMTKNQVSLTCLVKGFYPSDIAVEWESNGQPENNYKTTPPVLDSDGSFFLYSKLTVDKSRWQQGNVFSCSVMHEALHNAYTQKSLSLSPGK
light: ATQLTQSPSLSASVGDRVTITCRASESVSTHMHWYQQKPGKQPKLLIYGASNLESGVPSRFSGSGSGTDFTLTISSLQPEDFATYFCQQSWNDPFTFGQGTKLEIKGGSGGGGSGGEIVLTQSPGTLSLSPGERATLSCRASSGSIWYSFVSWYQQKPGQAPRLLIYADDQRASGIPDRFSGSGSGTDFTLTISRLEPEDFAVYYCQSYGINIDVVFGGGTKVEIKRTVAAPSVFIFPPSDEQLKSGTASVVCLLNNFYPREAKVQWKVDNALQSGNSQESVTEQDSKDSTYSLSSTLTLSKADYEKHKVYACEVTHQGLSSPVTKSFNRGEC
notes: DVD-Ig: outer hBDB-4G8.5 (VEGF), inner CL-33675 (PDGF), linkers GS-H10/GS-L10(dR); Human IgG1 L234A, L235A, H435A with kappa
With B3, in the assay with PDGF-BB [1], the Kd came out at 0.00074 nM and the kon amounted to 1.6e+07 M⁻¹ s⁻¹. For the same molecule, in the assay with VEGF-A [2], the Kd amounted to 6.6 pM and the kon amounted to 4.7e+06 M⁻¹ s⁻¹.

B4: 4G8.5_GS_9E8.4 (PR-1612489) (bispecific antibody, human IgG1, kappa, L234A L235A)
heavy: EIQLVQSGSELKKPGASVKVSCKASGYTFTNYGMYWVRQAPGQGLEYMGWINTETGKPTYADDFKGRFVFSLDTSVSTAYLQISSLKAEDTAVYFCARTNYYYRSYIFYFDYWGQGTMVTVSSGGGGSGGGGSEVTLRESGPALVKPTQTLTLTCTFSGFSLSTYGMGVGWIRQPPGKALEWLANIWWDDDKYYNPSLKNRLTISKDTSKNQVVLTMTNMDPVDTATYYCARIESIGTTYSFDYWGQGTMVTVSSASTKGPSVFPLAPSSKSTSGGTAALGCLVKDYFPEPVTVSWNSGALTSGVHTFPAVLQSSGLYSLSSVVTVPSSSLGTQTYICNVNHKPSNTKVDKKVEPKSCDKTHTCPPCPAPEAAGGPSVFLFPPKPKDTLMISRTPEVTCVVVDVSHEDPEVKFNWYVDGVEVHNAKTKPREEQYNSTYRVVSVLTVLHQDWLNGKEYKCKVSNKALPAPIEKTISKAKGQPREPQVYTLPPSREEMTKNQVSLTCLVKGFYPSDIAVEWESNGQPENNYKTTPPVLDSDGSFFLYSKLTVDKSRWQQGNVFSCSVMHEALHNAYTQKSLSLSPGK
light: ATQLTQSPSLSASVGDRVTITCRASESVSTHMHWYQQKPGKQPKLLIYGASNLESGVPSRFSGSGSGTDFTLTISSLQPEDFATYFCQQSWNDPFTFGQGTKLEIKGGSGGGGSGGEFVLTQSPGTLSLSPGERATLSCERSSGDIGDSYVSWYQQKPGQAPRLVIYADDQRPSGIPDRFSGSGSGTDFTLTISRLEPEDFAVYYCQSYDINIDIVFGGGTKVEIKRTVAAPSVFIFPPSDEQLKSGTASVVCLLNNFYPREAKVQWKVDNALQSGNSQESVTEQDSKDSTYSLSSTLTLSKADYEKHKVYACEVTHQGLSSPVTKSFNRGEC
notes: DVD-Ig: outer hBDB-4G8.5 (VEGF), inner hBDI-9E8.4 (PDGF), linkers GS-H10/GS-L10(dR); Human IgG1 L234A, L235A, H435A with kappa
In the assay with PDGF-BB [1], B4 returned a Kd of 0.028 nM and an on-rate (kon) of 5.8e+06 M⁻¹ s⁻¹. For the same molecule, in the assay with VEGF-A [2], binding was characterised by a dissociation constant (Kd) of 8.5 pM and the kon worked out at 5.4e+06 M⁻¹ s⁻¹.

B5: 9E8.4-GS-4G8.3 (PR-1563988) (bispecific antibody, human IgG1, kappa, L234A L235A)
heavy: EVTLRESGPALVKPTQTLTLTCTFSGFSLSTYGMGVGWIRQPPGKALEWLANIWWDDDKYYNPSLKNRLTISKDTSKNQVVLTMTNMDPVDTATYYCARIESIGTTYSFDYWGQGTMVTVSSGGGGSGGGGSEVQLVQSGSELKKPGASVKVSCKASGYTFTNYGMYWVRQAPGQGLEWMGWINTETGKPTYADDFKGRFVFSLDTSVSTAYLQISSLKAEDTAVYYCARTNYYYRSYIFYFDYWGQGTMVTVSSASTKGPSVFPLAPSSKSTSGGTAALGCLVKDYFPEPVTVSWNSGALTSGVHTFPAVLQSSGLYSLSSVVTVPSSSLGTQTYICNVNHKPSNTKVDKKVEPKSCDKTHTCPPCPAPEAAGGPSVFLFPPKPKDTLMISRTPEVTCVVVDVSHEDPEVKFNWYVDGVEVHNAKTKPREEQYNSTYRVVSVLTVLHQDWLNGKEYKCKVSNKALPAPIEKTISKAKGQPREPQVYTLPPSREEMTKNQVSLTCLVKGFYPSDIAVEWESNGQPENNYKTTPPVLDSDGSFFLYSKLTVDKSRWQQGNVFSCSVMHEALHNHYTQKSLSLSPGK
light: EFVLTQSPGTLSLSPGERATLSCERSSGDIGDSYVSWYQQKPGQAPRLVIYADDQRPSGIPDRFSGSGSGTDFTLTISRLEPEDFAVYYCQSYDINIDIVFGGGTKVEIKGGGSGGGGSGDTVLTQSPATLSLSPGERATLSCRASESVSTHMHWYQQKPGQAPRLLIYGASNLESGVPARFSGSGSGTDFTLTISSLEPEDFAVYFCQQSWNDPFTFGQGTKLEIKRTVAAPSVFIFPPSDEQLKSGTASVVCLLNNFYPREAKVQWKVDNALQSGNSQESVTEQDSKDSTYSLSSTLTLSKADYEKHKVYACEVTHQGLSSPVTKSFNRGEC
notes: DVD-Ig; outer hBDI-9E8.4 (PDGF), linkers GS-H10/GS-L10, inner hBDB-4G8.3 (VEGF); human IgG1 L234A, L235A / kappa
In the assay with VEGF-A [3], B5 returned a Kd of 0.29 nM and a kon of 220000 M⁻¹ s⁻¹. In the assay with PDGF-BB [4], this molecule gave a Kd of 0.02 nM and a kon of 1e+07 M⁻¹ s⁻¹.

B6: 9E8.4-SS-4G8.3 (PR-1563990) (bispecific antibody, human IgG1, kappa, L234A L235A)
heavy: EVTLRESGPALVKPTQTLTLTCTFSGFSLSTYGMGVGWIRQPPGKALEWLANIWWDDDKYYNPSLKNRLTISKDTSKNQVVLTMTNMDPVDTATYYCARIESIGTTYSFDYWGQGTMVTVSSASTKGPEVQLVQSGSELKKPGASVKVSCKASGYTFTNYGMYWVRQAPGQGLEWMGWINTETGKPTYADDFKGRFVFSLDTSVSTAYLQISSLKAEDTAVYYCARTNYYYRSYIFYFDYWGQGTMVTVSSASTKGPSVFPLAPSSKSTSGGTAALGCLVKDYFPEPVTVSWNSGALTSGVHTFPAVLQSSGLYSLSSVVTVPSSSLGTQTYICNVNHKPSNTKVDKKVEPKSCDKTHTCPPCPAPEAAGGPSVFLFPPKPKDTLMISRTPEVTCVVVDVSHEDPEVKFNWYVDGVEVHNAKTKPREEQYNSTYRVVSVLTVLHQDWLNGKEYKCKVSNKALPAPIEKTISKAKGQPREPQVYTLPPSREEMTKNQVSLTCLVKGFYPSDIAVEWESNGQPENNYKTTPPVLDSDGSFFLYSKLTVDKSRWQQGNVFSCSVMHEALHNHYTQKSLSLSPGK
light: EFVLTQSPGTLSLSPGERATLSCERSSGDIGDSYVSWYQQKPGQAPRLVIYADDQRPSGIPDRFSGSGSGTDFTLTISRLEPEDFAVYYCQSYDINIDIVFGGGTKVEIKGTVAAPDTVLTQSPATLSLSPGERATLSCRASESVSTHMHWYQQKPGQAPRLLIYGASNLESGVPARFSGSGSGTDFTLTISSLEPEDFAVYFCQQSWNDPFTFGQGTKLEIKRTVAAPSVFIFPPSDEQLKSGTASVVCLLNNFYPREAKVQWKVDNALQSGNSQESVTEQDSKDSTYSLSSTLTLSKADYEKHKVYACEVTHQGLSSPVTKSFNRGEC
notes: DVD-Ig; outer hBDI-9E8.4 (PDGF), linkers HG-short/LK-short, inner hBDB-4G8.3 (VEGF); human IgG1 L234A, L235A / kappa
Take B6: the Kd with VEGF-A [3] was determined as 0.78 nM; with PDGF-BB [4], 0.02 nM. Besides, the kon in the assay with VEGF-A [3] was 160000 M⁻¹ s⁻¹; with PDGF-BB [4] it was 1e+07 M⁻¹ s⁻¹.

B7: 9E8.4-LS-4G8.3 (PR-1564009) (bispecific antibody, human IgG1, kappa, L234A L235A)
heavy: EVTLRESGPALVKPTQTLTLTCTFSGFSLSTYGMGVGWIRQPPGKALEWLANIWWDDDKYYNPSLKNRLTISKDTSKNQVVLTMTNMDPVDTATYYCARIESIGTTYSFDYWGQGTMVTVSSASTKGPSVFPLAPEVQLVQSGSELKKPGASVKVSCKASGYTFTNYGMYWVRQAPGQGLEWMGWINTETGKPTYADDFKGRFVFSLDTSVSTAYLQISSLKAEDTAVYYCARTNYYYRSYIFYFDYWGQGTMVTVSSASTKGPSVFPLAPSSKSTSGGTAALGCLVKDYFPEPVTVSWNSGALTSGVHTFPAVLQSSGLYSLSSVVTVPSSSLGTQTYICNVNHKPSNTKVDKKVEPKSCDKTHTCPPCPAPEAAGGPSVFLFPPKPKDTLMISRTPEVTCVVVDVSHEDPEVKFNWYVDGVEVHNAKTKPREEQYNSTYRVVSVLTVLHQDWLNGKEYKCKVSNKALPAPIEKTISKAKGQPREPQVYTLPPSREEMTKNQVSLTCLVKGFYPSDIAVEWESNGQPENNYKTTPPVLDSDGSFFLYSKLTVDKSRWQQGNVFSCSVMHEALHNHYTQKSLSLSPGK
light: EFVLTQSPGTLSLSPGERATLSCERSSGDIGDSYVSWYQQKPGQAPRLVIYADDQRPSGIPDRFSGSGSGTDFTLTISRLEPEDFAVYYCQSYDINIDIVFGGGTKVEIKGTVAAPDTVLTQSPATLSLSPGERATLSCRASESVSTHMHWYQQKPGQAPRLLIYGASNLESGVPARFSGSGSGTDFTLTISSLEPEDFAVYFCQQSWNDPFTFGQGTKLEIKRTVAAPSVFIFPPSDEQLKSGTASVVCLLNNFYPREAKVQWKVDNALQSGNSQESVTEQDSKDSTYSLSSTLTLSKADYEKHKVYACEVTHQGLSSPVTKSFNRGEC
notes: DVD-Ig; outer hBDI-9E8.4 (PDGF), linkers HG-long/LK-short, inner hBDB-4G8.3 (VEGF); human IgG1 L234A, L235A / kappa
B7: in the assay with VEGF-A [3], the Kd amounted to 0.2 nM and the kon was 270000 M⁻¹ s⁻¹. For the same molecule, in the assay with PDGF-BB [4], the Kd is 0.02 nM and the kon was 1e+07 M⁻¹ s⁻¹.
